Measured values published in patent US20110143379A1 (Johns Hopkins, published 2011).

Target: T1, albumin (in whole human plasma) (human, UniProt P02768 25-609)
T1 construct: Endogenous plasma protein, not a purified reagent
Test: ethanol precipitation of human plasma spiked with TRX; fractions followed by western blot

T1 sequence (P02768 25-609 limits assumed): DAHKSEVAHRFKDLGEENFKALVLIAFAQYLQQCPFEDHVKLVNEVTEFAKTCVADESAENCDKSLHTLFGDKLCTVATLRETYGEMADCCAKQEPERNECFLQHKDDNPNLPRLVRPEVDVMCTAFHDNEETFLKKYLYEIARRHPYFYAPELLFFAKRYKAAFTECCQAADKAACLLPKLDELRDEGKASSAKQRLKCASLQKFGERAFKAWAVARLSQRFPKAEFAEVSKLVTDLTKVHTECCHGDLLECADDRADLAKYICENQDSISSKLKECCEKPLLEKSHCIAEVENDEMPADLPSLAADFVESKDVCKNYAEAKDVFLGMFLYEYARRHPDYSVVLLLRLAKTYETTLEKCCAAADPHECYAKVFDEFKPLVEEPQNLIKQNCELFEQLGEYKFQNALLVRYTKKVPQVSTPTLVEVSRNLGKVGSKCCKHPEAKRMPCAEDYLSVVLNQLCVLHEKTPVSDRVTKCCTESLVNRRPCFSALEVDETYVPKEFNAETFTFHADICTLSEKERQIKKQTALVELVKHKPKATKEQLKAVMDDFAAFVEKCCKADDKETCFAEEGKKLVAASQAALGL

binding result: binds
B1: recombinant human thioredoxin (TRX), full length (enzyme)
chain: VKQIESKTAFQEALDAAGDKLVVVDFSATWCGPCKMIKPFFHSLSEKYSNVIFLEVDVDDCQDVASECEVKCMPTFQFFKKGQKVGEFSGANKEKLEATINELV
notes: It was denatured on SDS gels for the western blots; also called full-length thioredoxin
